Measured values as given in article PMC4380410.

What was measured:
[1] = target: T1, CfaRfull-HIS6 (Streptomyces scabies 87-22) (UniProt C9ZEC8); experiment: EMSA; settings: LightShift Chemiluminescent EMSA kit per manufacturer; buffer, salt, pH and temperature not stated (protein stored in 20 mM sodium phosphate, 150 mM NaCl, 20% …)
T1 sequence: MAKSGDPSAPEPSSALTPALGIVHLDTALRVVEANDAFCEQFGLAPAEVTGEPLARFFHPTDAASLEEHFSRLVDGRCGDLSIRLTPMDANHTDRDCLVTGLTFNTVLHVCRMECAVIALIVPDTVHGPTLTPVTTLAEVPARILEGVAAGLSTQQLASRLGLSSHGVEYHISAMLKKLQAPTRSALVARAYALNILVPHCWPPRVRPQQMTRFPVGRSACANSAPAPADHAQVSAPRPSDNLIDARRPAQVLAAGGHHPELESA

[2] = target: CfaR^full-HIS6 (Streptomyces scabies); experiment: cross-linking; glutaraldehyde (1 μL of 2.3% w/v) added to 80 pmol purified protein in 20 mM sodium phosphate pH 7.5, 20 μL, 5 min at 37°C; stopped with Tris-HCl pH 8.0; SDS-PAGE (12%), Coomassie staining
[3] = target: CfaR^ΔLuxR-HIS6 (Streptomyces scabies); experiment: as above
CfaRfull-HIS6 = CfaRfull-HIS6 (Streptomyces scabies 87-22, UniProt C9ZEC8 1-265); experiment: EMSA; 0.1 pmol probe, 2 pmol protein; LightShift Chemiluminescent EMSA kit per manufacturer; buffer, salt, pH and temperature not stated (protein stored in 20 mM sodium phosphate, 150 mM NaCl, 20% glycerol, pH 7.8); settings: protein: recombinant; tags: C-terminal His6; chain copies: 2; blunt

“GACCTTCGTTCTGTAGCCCTTGTATGGTCGCATTGCCTCCGCAGGTCGACCCCTTTCGGCACCATAGGAGACCCTCTTGGCGAACATCGAATCGACCATCAAGCACATCCTGGTCGACGATCTCTTCATCACTGTGCCG (double strand) [fragment b]” was tested, and the binding [1] was “no binding”.

With CfaR^full-HIS6 (natural protein) the stoichiometry N [2] was 2.

With “GCACAGGAAGGAGGAGAACCCCTCACCTCGGGCCCTTGGACCCGACACACCCGCAGCGCGTGCGACGGTTCCTGCGCCGGCCGGCCTGACAAACCAGGGCGAGACGCCGCATCTGCGGAACCGGTCGACCCGCAGACGAATCGTGGCCGACGCCAACCCGAATGCGGG (double strand) [fragment c]” the binding [1] was “no binding”.

CfaR^ΔLuxR-HIS6 (domain or fragment) showed a stoichiometry N [3] of 2.

B1: P1 probe (LC12/LC13) (dsDNA)
DNA 1: CGAATGCGGGGACTAGGGATTCTCCTAGTCGACCTTCGTT
DNA 2: AACGAAGGTCGACTAGGAGAATCCCTAGTCCCCGCATTCG
B1: binds (CfaRfull-HIS6).

B2: P2 control probe (LC14/LC15) (dsDNA)
DNA 1: TGTGGTTCGCGTCCATGGGTGTCAGGCGGATGCTTAAGTC
DNA 2: GACTTAAGCATCCGCCTGACACCCATGGACGCGAACCACA
B2: no binding (CfaRfull-HIS6).
